Consider seven molecules from PMC11272584 (Nature Metabolism, 2024).

Changes are numbered by the printed parent chain. In names and notes the source's numbering stands.

B1: G144S (protein)
chain: RAETGSKGQTAGELYQRWERYRRECQETLAAAEPPSGLACNGSFDMYVCWDYAAPNATARASCPWYLPWHHHVAAGFVLRQCGSDGQWGLWRDHTQCENPEKNEAFLDQRLILERLQVMYTVSYSLSLATLLLALLILSLFRRLHCTRNYIHINLFTSFMLRAAAILSRDRLLPRPGPYLGDQALALWNQALAACRTAQIVTQYCVGANYTWLLVEGVYLHSLLVLVGGSEEGHFRYYLLLGWGAPALFVIPWVIVRYLYENTQCWERNEVKAIWWIIRTPILMTILINFLIFIRILGILLSKLRTRQMRCRDYRLRLARSTLTLVPLLGVHEVVFAPVTEEQARGALRFAKLGFEIFLSSFQGFLVSVLYCFINKEVQSEIRRGWHHCRLRRSLGEEQRQLPERAFRALPSGSGPGEVPTSRGLSSGTLPGPGNEASRELESYC
B2: S64P (protein)
chain: B1 chain with S43P, S123G
B3: T116R (protein)
chain: B1 chain with T95R, S123G
B4: Y73H (protein)
chain: B1 chain with Y52H, S123G
B5: V99I (protein)
chain: B1 chain with V78I, S123G
B6: R101H (protein)
chain: B1 chain with R80H, S123G
B7: M67R (protein)
chain: B1 chain with M46R, S123G

The target of one assay is T1, GIPR G144S (Homo sapiens, UniProt P48546, G144S).
T1 construct: host or cells: HEK293
T1 sequence (P48546 22-466 G144S): B1 chain
Briefly: cAMP accumulation. The class given is cell-based.
Conditions: not given
For orientation: cAMP levels reflect the balance of adenylyl cyclase and phosphodiesterase activity.
As for B1, the “Efficacy at 100pmol (cAMP)” value stood at 0.204.

A further assay relates to GIPR variants (groups). Description: cAMP accumulation. The following applies: cAMP part of the in vitro group. The class given is cell-based, human.
For B2, the “In vitro groups (cAMP)” value was “LoF_camp”.
For the molecule B3, the “In vitro groups (cAMP)” value is listed as “LoF_camp”.
As to B4, the “In vitro groups (cAMP)” value is listed as “LoF_camp”.
For B5, the “In vitro groups (cAMP)” value is “LoF_camp”.
In the case of B6, the “In vitro groups (cAMP)” value is “LoF_camp”.
Turning to B1, the “In vitro groups (cAMP)” value is on record as “LoF_camp”.
As for B7, the “In vitro groups (cAMP)” value is reported as “LoF_camp”.

The assay is the same for the next values; noted with them: cAMP production compared with WT.
Molecule B2 showed a percentage_camp below 50% cAMP.
B3 registered a percentage_camp below 50% cAMP.
B4 came in with a percentage_camp below 50% cAMP.
Turning to B5, the percentage_camp is reported as below 50% cAMP.
The molecule B6 registered a percentage_camp below 50% cAMP.
Same read-out and setting: to B1 belongs below 50% cAMP.
For the molecule B7, the percentage_camp is listed as below 50% cAMP.

The assay is the same for the next values; noted with them: in vitro cAMP production per GIPR variant.
Regarding B2, the “Beta, cAMP” value came to 0.
Regarding B3, the “Beta, cAMP” value came to 0.
For the molecule B4, the “Beta, cAMP” value was 0.06277.
On the same count and under the same terms, with B5 the figure was 0.04155.
On the same count and under the same terms, with B6 the figure was 0; with B1, 0.204.
B7: the “Beta, cAMP” value came out at 0.1344.

The next assay concerns GIPR variants (groups). Briefly: β-arrestin 2 recruitment (BRET).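 Also: BRET readout of β-arrestin 2 recruitment in transiently transfected HEK293 cells expressing WT GIPR or a GIPR variant plus GPCR kinase 2, Rluc8 donor and citrine acceptor.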 Conditions: arr part of the in vitro group. (In general: Arrestin recruitment assays detect the binding of arrestin to an activated receptor.)
Description: Both cell lines were cultured at 5% CO2 at 37 °C in Roswell Park Memorial Institute GlutaMAX-I supplemented with 10% fetal bovine serum, 180 units ml^−1 penicillin, and 45 g ml^−1 streptomycin. […] The polyethyleneimine (PEI) transfection method was used for the β-arrestin 2 recruitment assays[50], endosomal signalling and basal receptor localization assays, while the lipofectamine transfection method was used for the internalization assay.
Measurement of β-arrestin 2 recruitment was performed with a BRET assay. Two days before the assay, the HEK293 cells were transiently transfected with either WT GIPR or the GIPR variants together with the donor Rluc8-Arrestin-3-Sp1, the acceptor mem-linker-citrine-SH3 and the GPCR kinase 2 to facilitate β-arrestin 2 recruitment. On assay day, the cells were washed with PBS and resuspended in PBS supplemented with 5 mmol l^−1 glucose. Subsequently, 85 µl of the cell suspension was transferred to a white 96-well plate and 10 µl of 50 µM coelenterazine-h was added.
B2: the “In vitro groups (β-arrestin)” value was “LoF_arr”.
Take B3: the “In vitro groups (β-arrestin)” value is “WT-like_arr”.
B4: the “In vitro groups (β-arrestin)” value is recorded as “WT-like_arr”.
The same measure, in the same setting: to B5 belongs “WT-like_arr”.
As to B6, the “In vitro groups (β-arrestin)” value is given as “LoF_arr”.
With B1, the “In vitro groups (β-arrestin)” value was “LoF_arr”.
Regarding B7, the “In vitro groups (β-arrestin)” value is “WT-like_arr”.

Staying with this assay, now noted: in vitro β-arrestin recruitment per GIPR variant.
For B2, the “Beta, Barr” value is given as 0.
Consider B3, for which the “Beta, Barr” value is 0.6218.
Regarding B4, the “Beta, Barr” value is listed as 1.323.
For B5, the “Beta, Barr” value was determined as 0.6225.
Consider B6, for which the “Beta, Barr” value is 0.
Still for that read-out and setting: to B1 belongs 0.
On to B7, for which the “Beta, Barr” value turned out to be 1.452.

In a further assay the target is T2, GIPR Y73H (Homo sapiens, UniProt P48546, Y73H).
T2 construct: host or cells: HEK293
T2 sequence (P48546 22-466 Y73H): B1 chain with Y52H, S123G
Briefly: cAMP accumulation. It is filed as cell-based.
Conditions: not given
B4: the “Efficacy at 100pmol (cAMP)” value came out at 0.06277.

A further assay addresses T3, GIPR V99I (Homo sapiens, UniProt P48546, V99I).
T3 construct: host or cells: HEK293
T3 sequence (P48546 22-466 V99I): B1 chain with V78I, S123G
Briefly: cAMP accumulation. It is filed as cell-based.
Conditions: not given
As for B5, the “Efficacy at 100pmol (cAMP)” value is reported as 0.04155.

For the next assay, the target named is T4, GIPR M67R (Homo sapiens, UniProt P48546, M67R).
T4 construct: host or cells: HEK293
T4 sequence (P48546 22-466 M67R): B1 chain with M46R, S123G
Briefly: cAMP accumulation. The class given is cell-based.
Conditions: not given
B7: the “Efficacy at 100pmol (cAMP)” value is 0.1344.

A further assay addresses T5, GIPR R101H (Homo sapiens, UniProt P48546, R101H).
T5 construct: host or cells: HEK293
T5 sequence (P48546 22-466 R101H): B1 chain with R80H, S123G
Description: cAMP accumulation. It is filed as cell-based.
Conditions: not given
Turning to B6, the “Efficacy at 100pmol (cAMP)” value worked out at 0.

Another assay deals with T6, GIPR T116R (Homo sapiens, UniProt P48546, T116R).
T6 construct: host or cells: HEK293
T6 sequence (P48546 22-466 T116R): B1 chain with T95R, S123G
Briefly: cAMP accumulation. It is filed as cell-based.
Conditions: not given
For B3, the “Efficacy at 100pmol (cAMP)” value is given as 0.03526.

Another assay deals with T7, GIPR S64P (Homo sapiens, UniProt P48546, S64P).
T7 construct: host or cells: HEK293
T7 sequence (P48546 22-466 S64P): B1 chain with S43P, S123G
Briefly: cAMP accumulation.
Conditions: not given
It is filed as cell-based.
In the case of B2, the “Efficacy at 100pmol (cAMP)” value is given as 0.
